The chains are these.
B1: EDDSDVW(2Nala)GGADTD (peptide)
peptide: Ac-EDDSDVW[2Nal]GGADTD-NH2
SMILES: CC(=O)N[C@@H](CCC(=O)O)C(=O)N[C@@H](CC(=O)O)C(=O)N[C@@H](CC(=O)O)C(=O)N[C@@H](CO)C(=O)N[C@@H](CC(=O)O)C(=O)N[C@H](C(=O)N[C@@H](Cc1c[nH]c2ccccc12)C(=O)N[C@@H](Cc1ccc2ccccc2c1)C(=O)NCC(=O)NCC(=O)N[C@@H](C)C(=O)N[C@@H](CC(=O)O)C(=O)N[C@H](C(=O)N[C@@H](CC(=O)O)C(N)=O)[C@@H](C)O)C(C)C
B2: EDDSDVW(1Nala)GGADTD (peptide)
peptide: Ac-EDDSDVW[1Nal]GGADTD-NH2
SMILES: CC(=O)N[C@@H](CCC(=O)O)C(=O)N[C@@H](CC(=O)O)C(=O)N[C@@H](CC(=O)O)C(=O)N[C@@H](CO)C(=O)N[C@@H](CC(=O)O)C(=O)N[C@H](C(=O)N[C@@H](Cc1c[nH]c2ccccc12)C(=O)N[C@@H](Cc1cccc2ccccc12)C(=O)NCC(=O)NCC(=O)N[C@@H](C)C(=O)N[C@@H](CC(=O)O)C(=O)N[C@H](C(=O)N[C@@H](CC(=O)O)C(N)=O)[C@@H](C)O)C(C)C
B3: EDDS(1Nala)… (peptide)
peptide: Ac-EDDS[1Nal]VWWGGADTD-NH2
SMILES: CC(=O)N[C@@H](CCC(=O)O)C(=O)N[C@@H](CC(=O)O)C(=O)N[C@@H](CC(=O)O)C(=O)N[C@@H](CO)C(=O)N[C@@H](Cc1cccc2ccccc12)C(=O)N[C@H](C(=O)N[C@@H](Cc1c[nH]c2ccccc12)C(=O)N[C@@H](Cc1c[nH]c2ccccc12)C(=O)NCC(=O)NCC(=O)N[C@@H](C)C(=O)N[C@@H](CC(=O)O)C(=O)N[C@H](C(=O)N[C@@H](CC(=O)O)C(N)=O)[C@@H](C)O)C(C)C
B4: EDDS(4Pal)… (peptide)
peptide: Ac-EDDS[4Pal]VWWGGADTD-NH2
SMILES: CC(=O)N[C@@H](CCC(=O)O)C(=O)N[C@@H](CC(=O)O)C(=O)N[C@@H](CC(=O)O)C(=O)N[C@@H](CO)C(=O)N[C@@H](Cc1ccncc1)C(=O)N[C@H](C(=O)N[C@@H](Cc1c[nH]c2ccccc12)C(=O)N[C@@H](Cc1c[nH]c2ccccc12)C(=O)NCC(=O)NCC(=O)N[C@@H](C)C(=O)N[C@@H](CC(=O)O)C(=O)N[C@H](C(=O)N[C@@H](CC(=O)O)C(N)=O)[C@@H](C)O)C(C)C
B5: R4-20 (peptide)
peptide: Ac-RRRREDDD[2Nal]IDWYDSDDD-NH2
SMILES: CC[C@H](C)[C@H](NC(=O)[C@H](Cc1ccc2ccccc2c1)NC(=O)[C@H](CC(=O)O)NC(=O)[C@H](CC(=O)O)NC(=O)[C@H](CC(=O)O)NC(=O)[C@H](CCC(=O)O)NC(=O)[C@H](CCCNC(=N)N)NC(=O)[C@H](CCCNC(=N)N)NC(=O)[C@H](CCCNC(=N)N)NC(=O)[C@H](CCCNC(=N)N)NC(C)=O)C(=O)N[C@@H](CC(=O)O)C(=O)N[C@@H](Cc1c[nH]c2ccccc12)C(=O)N[C@@H](Cc1ccc(O)cc1)C(=O)N[C@@H](CC(=O)O)C(=O)N[C@@H](CO)C(=O)N[C@@H](CC(=O)O)C(=O)N[C@@H](CC(=O)O)C(=O)N[C@@H](CC(=O)O)C(N)=O
B6: R4-21 (peptide)
peptide: Ac-RRRREDDD[2Nal]IDWGPTSDDD-NH2
SMILES: CC[C@H](C)[C@H](NC(=O)[C@H](Cc1ccc2ccccc2c1)NC(=O)[C@H](CC(=O)O)NC(=O)[C@H](CC(=O)O)NC(=O)[C@H](CC(=O)O)NC(=O)[C@H](CCC(=O)O)NC(=O)[C@H](CCCNC(=N)N)NC(=O)[C@H](CCCNC(=N)N)NC(=O)[C@H](CCCNC(=N)N)NC(=O)[C@H](CCCNC(=N)N)NC(C)=O)C(=O)N[C@@H](CC(=O)O)C(=O)N[C@@H](Cc1c[nH]c2ccccc12)C(=O)NCC(=O)N1CCC[C@H]1C(=O)N[C@H](C(=O)N[C@@H](CO)C(=O)N[C@@H](CC(=O)O)C(=O)N[C@@H](CC(=O)O)C(=O)N[C@@H](CC(=O)O)C(N)=O)[C@@H](C)O
B7: EDDS(Omtyr)… (peptide)
peptide: Ac-EDDS[Tyr(Me)]VWWGGADTD-NH2
SMILES: COc1ccc(C[C@H](NC(=O)[C@H](CO)NC(=O)[C@H](CC(=O)O)NC(=O)[C@H](CC(=O)O)NC(=O)[C@H](CCC(=O)O)NC(C)=O)C(=O)N[C@H](C(=O)N[C@@H](Cc2c[nH]c3ccccc23)C(=O)N[C@@H](Cc2c[nH]c3ccccc23)C(=O)NCC(=O)NCC(=O)N[C@@H](C)C(=O)N[C@@H](CC(=O)O)C(=O)N[C@H](C(=O)N[C@@H](CC(=O)O)C(N)=O)[C@@H](C)O)C(C)C)cc1
B8: RRRR(2Nala)… (peptide)
peptide: Ac-RRRR[2Nal]EDSDDYDDIDDDW-NH2
SMILES: CC[C@H](C)[C@H](NC(=O)[C@H](CC(=O)O)NC(=O)[C@H](CC(=O)O)NC(=O)[C@H](Cc1ccc(O)cc1)NC(=O)[C@H](CC(=O)O)NC(=O)[C@H](CC(=O)O)NC(=O)[C@H](CO)NC(=O)[C@H](CC(=O)O)NC(=O)[C@H](CCC(=O)O)NC(=O)[C@H](Cc1ccc2ccccc2c1)NC(=O)[C@H](CCCNC(=N)N)NC(=O)[C@H](CCCNC(=N)N)NC(=O)[C@H](CCCNC(=N)N)NC(=O)[C@H](CCCNC(=N)N)NC(C)=O)C(=O)N[C@@H](CC(=O)O)C(=O)N[C@@H](CC(=O)O)C(=O)N[C@@H](CC(=O)O)C(=O)N[C@@H](Cc1c[nH]c2ccccc12)C(N)=O
B9: EDDS(3Pal)… (peptide)
peptide: Ac-EDDS[3Pal]VWWGGADTD-NH2
SMILES: CC(=O)N[C@@H](CCC(=O)O)C(=O)N[C@@H](CC(=O)O)C(=O)N[C@@H](CC(=O)O)C(=O)N[C@@H](CO)C(=O)N[C@@H](Cc1cccnc1)C(=O)N[C@H](C(=O)N[C@@H](Cc1c[nH]c2ccccc12)C(=O)N[C@@H](Cc1c[nH]c2ccccc12)C(=O)NCC(=O)NCC(=O)N[C@@H](C)C(=O)N[C@@H](CC(=O)O)C(=O)N[C@H](C(=O)N[C@@H](CC(=O)O)C(N)=O)[C@@H](C)O)C(C)C

Starred links: 1 amine or outer side, 2 acyl side, 3 side chain; linkers in the order of their positions; H or OH if unused. Non-standard residues stand in square brackets, D forms with d. Tyr(Me) = Omtyr, O-methyl-L-tyrosine, COc1ccc(C[C@H](N[*:1])C(=O)[*:2])cc1; Phe(4-tBu) = CC(C)(C)c1ccc(C[C@H](N)C(=O)O)cc1; Phe(4-NH2) = Nc1ccc(C[C@H](N)C(=O)O)cc1; Phe(4-F) = N[C@@H](Cc1ccc(F)cc1)C(=O)O; 1Nal = N[C@@H](Cc1cccc2ccccc12)C(=O)O; 2Nal = N[C@@H](Cc1ccc2ccccc2c1)C(=O)O; 3Pal = N[C@@H](Cc1cccnc1)C(=O)O; 4Pal = N[C@@H](Cc1ccncc1)C(=O)O

For 31 molecules, Ki results are on record in patent US20260193293A1, “PEPTIDES CAPABLE OF INHIBITING PROTEIN-PROTEIN INTERACTIONS AT GABAB1A SUBUNIT AND USES THEREOF” (UNIVERSITY OF COPENHAGEN, priority 2022, published 2026).

In general, Ki refers to a measure of affinity in units of concentration, obtained from inhibition or displacement. Lower therefore signals a stronger hold on the target.

In this assay the target is Sushi domains (SD1/2) protein of GABAB1a (GB1a). The experiment in a line: FP competition vs TAMRA AJAP-1probe.
Sushi domains (SD1/2) protein of GABAB1a (GB1a), sequence (Q9Z0U4 29-158): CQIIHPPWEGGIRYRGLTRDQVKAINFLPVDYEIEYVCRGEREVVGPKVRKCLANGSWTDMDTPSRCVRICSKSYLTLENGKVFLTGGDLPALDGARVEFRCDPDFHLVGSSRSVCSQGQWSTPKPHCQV
Take B1: the Ki was determined as 814 nM.

The molecule B2 showed a Ki of 499 nM.

In turn, Ac-RRRRRRREDDDWIDWYDSDDD-NH2 gave a Ki of 89.1 nM.

Molecule Ac-RRREDDDWIDWGPTSDDD-NH2 [R3-17] showed a Ki of 9 nM.

In turn, Ac-EDDS[Phe(4-F)]VWWGGADTD-NH2 [EDDS(Fphe)…] came in with a Ki of 117 nM.

In turn, B3 had a Ki of 69 nM.

In turn, Ac-EDDS[Phe(4-NH2)]VWWGGADTD-NH2 [EDDS(Aphe)…] had a Ki of 184 nM.

As for B4, the Ki was found to be 424 nM.

Molecule Ac-RRRREDDDWIDWGPTSDDD-NH2 [4R-17] returned a Ki of 15 nM.

Regarding Ac-RRRREDDDWIDWYDSDDD-NH2 [4R-16], the Ki stood at 20.6 nM.

Consider Ac-EDDDWIDWGPTSDDDGGGGSRRRRRRRR-NH2 [17-FL-R8], for which the Ki worked out at 147 nM.

Molecule Ac-EDDDWIDWYDSDDDGGGGSRRRRRRRR-NH2 [16-FL-R8] came in with a Ki of 118 nM.

Ac-EDDDWIDWYDSDDDEAAAKRRRRRRRR-NH2 [16-RL-R8] had a Ki of 99.5 nM.

Ac-RRRRRREDDDWIDWYDSDDD-NH2: the Ki is 70.9 nM.

In turn, Ac-RRRRRRREDDDWIDWGPTSDDD-NH2 displayed a Ki of 65 nM.

Turning to Ac-RRREDDDWIDWYDSDDD-NH2 [R3-16], the Ki came to 6.4 nM.

Take B5: the Ki came to 15 nM.

Consider Ac-EDDDWIDWGPTSDDDRRRRRRRR-NH2 [17-R8], for which the Ki worked out at 123 nM.

Consider B6, for which the Ki was found to be 13 nM.

The molecule B7 came in with a Ki of 101 nM.

Take Ac-RRRRRRRREAAAKEDDDWIDWYDSDDD-NH2 [R8-RL-16]: the Ki is 314 nM.

For Ac-RRRRRREDDDWIDWGPTSDDD-NH2, the inhibition constant (Ki) is 43.4 nM.

B8 returned a Ki of 143000 nM.

As to Ac-RRRRRRRREAAAKEDDDWIDWGPTSDDD-NH2 [R8-RL-17], the Ki was 105 nM.

In turn, Ac-RRRRRRRRGGGGSEDDDWIDWYDSDDD-NH2 [R8-FL-16] registered a Ki of 280 nM.

In the case of B9, the Ki came out at 373 nM.

The molecule Ac-RRRRRRRRGGGGSEDDDWIDWGPTSDDD-NH2 [R8-FL-17] yielded a Ki of 140 nM.

With Ac-RRRRREDDDWIDWYDSDDD-NH2, the Ki is 39.5 nM.

For Ac-RRRRREDDDWIDWGPTSDDD-NH2, the Ki turned out to be 32 nM.

Ac-EDDDWIDWGPTSDDDEAAAKRRRRRRRR-NH2 [17-RL-R8] had a Ki of 139 nM.

Ac-EDDS[Phe(4-tBu)]VWWGGADTD-NH2 [EDDS(Buphe)…] displayed a Ki of 269 nM.
